Data published in article PMC9723621.

How the values were obtained:
[1] = target: ArdK from plasmid R388 containing a C-terminal His tag (ArdKHT) (plasmid R388); assay: SEC; S75 gel filtration of the purified protein in solution
ArdK (ArdKHT) = target: T1, ArdK (ArdKHT) (plasmid R388 (expressed in E. coli …, UniProt Q6I6B7 1-107)); assay: X-ray crystallography (2.6 A); crystal structures only; protein in 20 mM Tris pH 7.5, 150 mM NaCl, 1 mM DTT, 1 mM EDTA (gel filtration buffer); complex and crystallization conditions not in the material; details: protein: recombinant; tags: C-terminal His; chain copies: 2; blunt
T1 sequence: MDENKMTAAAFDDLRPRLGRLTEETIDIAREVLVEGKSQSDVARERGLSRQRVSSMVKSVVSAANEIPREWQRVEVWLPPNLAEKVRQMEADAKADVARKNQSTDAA

ArdK (SeMet, ArdKHT) = target: T2, ArdK (SeMet, ArdKHT) (plasmid R388 (expressed in E. coli …, UniProt Q6I6B7 1-107)); assay: X-ray crystallography (2.8 A); crystal structures only; protein in 20 mM Tris pH 7.5, 150 mM NaCl, 1 mM DTT, 1 mM EDTA (gel filtration buffer); complex and crystallization conditions not in the material; details: protein: recombinant; tags: C-terminal His; chain copies: 2; blunt
T2 sequence: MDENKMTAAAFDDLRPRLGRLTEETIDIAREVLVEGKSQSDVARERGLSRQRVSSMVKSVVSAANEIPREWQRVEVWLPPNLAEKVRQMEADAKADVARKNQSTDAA

With “ArdK from plasmid R388 containing a C-terminal His tag (ArdKHT) (natural protein)” the stoichiometry N [1] was 2.

B1: IR operator, n = 3 spacer (IR_1/IR_2) (dsDNA)
DNA 1: GTAATGTCAATATTTGACA
DNA 2: TGTCAAATATTGACATTAC
B1: binds (ArdK (ArdKHT)).

B2: DR operator, Pssb (DR_1/DR_2) (dsDNA)
DNA 1: GTATTGACACCTATTGACA
DNA 2: TGTCAATAGGTGTCAATAC
B2: binds (ArdK (SeMet, ArdKHT)).
